According to PMC3212559, “Large-Scale Protein-Protein Interaction Analysis in Arabidopsis Mesophyll Protoplasts by Split Firefly Luciferase Complementation” (PLoS ONE, 2011):

What was measured:
Assay in all cases: split reporter (BiFC, NanoBiT); SFLC in living Arabidopsis mesophyll protoplasts: Aux/IAA-FLucN or MYB30-FLucN co-expressed with ARFCTD-FLucC or Aux/IAA-FLucC for 6 hr; 10 µg of each construct, 2×10^4 cells, 96-well plate, D-luciferin; relative activity standardised against ARF5CTD-FLucC + IAA28-FLucN
Details in all cases: partners not purified
IAA17-FLucC = biological target: T1, IAA17-FLucC (Arabidopsis, UniProt P93830 1-229)
T1 construct: Arabidopsis Aux/IAA protein IAA17; also called Aux/IAA-FLucC; source: Arabidopsis mesophyll protoplasts, transfected, in living cells; not shown: FLucC (firefly luciferase aa 394-550)
T1 sequence (P93830 whole entry, the tested form may be a part): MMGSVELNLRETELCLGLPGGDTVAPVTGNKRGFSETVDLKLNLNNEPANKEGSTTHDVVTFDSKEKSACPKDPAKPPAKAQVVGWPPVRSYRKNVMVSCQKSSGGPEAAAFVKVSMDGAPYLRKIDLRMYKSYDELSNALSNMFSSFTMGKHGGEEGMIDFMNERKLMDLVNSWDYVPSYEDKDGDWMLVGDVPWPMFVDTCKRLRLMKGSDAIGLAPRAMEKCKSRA

[1] = biological target: T2, ARF6 C-terminal domain (CTD)-FLucC (Arabidopsis, UniProt Q9ZTX8 796-935)
T2 construct: In the ARF-ARF tests the same CTD stood both as ARFCTD-FLucC and as ARFCTD-FLucN; one molecule for both; also called ARF6CTD-FLucC; ARFCTD-FLucC; source: Arabidopsis mesophyll protoplasts, transfected, in living cells (SFLC) and in lysate (co-IP); not shown: FLucC (firefly luciferase aa 394-550)
T2 sequence (looked up): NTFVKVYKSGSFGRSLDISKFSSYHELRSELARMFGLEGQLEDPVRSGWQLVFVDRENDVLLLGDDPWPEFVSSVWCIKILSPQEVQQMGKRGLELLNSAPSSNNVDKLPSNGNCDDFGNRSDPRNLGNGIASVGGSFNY

IAA6-FLucC = biological target: T3, IAA6-FLucC (Arabidopsis, UniProt Q38824 1-189)
T3 construct: Arabidopsis Aux/IAA protein IAA6; also called Aux/IAA-FLucC; source: Arabidopsis mesophyll protoplasts, transfected, in living cells; not shown: FLucC (firefly luciferase aa 394-550)
T3 sequence (looked up): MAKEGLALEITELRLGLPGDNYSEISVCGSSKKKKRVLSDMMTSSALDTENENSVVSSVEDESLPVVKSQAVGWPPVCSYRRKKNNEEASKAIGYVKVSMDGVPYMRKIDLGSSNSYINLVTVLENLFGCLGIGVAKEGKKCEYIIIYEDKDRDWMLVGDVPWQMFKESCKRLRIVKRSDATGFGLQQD

[2] = biological target: T4, ARF12 C-terminal domain (CTD)-FLucC (Arabidopsis, UniProt Q9XID4 511-593)
T4 construct: Arabidopsis auxin response factor 12, C-terminal dimerization domain (CTD); In the ARF-ARF tests the same CTD stood both as ARFCTD-FLucC and as ARFCTD-FLucN; one molecule for both; also called ARF12CTD-FLucC; ARFCTD-FLucC; source: Arabidopsis mesophyll protoplasts, transfected, in living cells; not shown: FLucC (firefly luciferase aa 394-550)
T4 sequence (looked up): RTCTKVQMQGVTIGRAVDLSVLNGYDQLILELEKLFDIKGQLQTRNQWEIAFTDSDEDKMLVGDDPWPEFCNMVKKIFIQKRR

IAA13-FLucC = biological target: T5, IAA13-FLucC (Arabidopsis, UniProt Q38831 1-247)
T5 construct: Arabidopsis Aux/IAA protein IAA13; also called Aux/IAA-FLucC; source: Arabidopsis mesophyll protoplasts, transfected, in living cells; not shown: FLucC (firefly luciferase aa 394-550)
T5 sequence (looked up): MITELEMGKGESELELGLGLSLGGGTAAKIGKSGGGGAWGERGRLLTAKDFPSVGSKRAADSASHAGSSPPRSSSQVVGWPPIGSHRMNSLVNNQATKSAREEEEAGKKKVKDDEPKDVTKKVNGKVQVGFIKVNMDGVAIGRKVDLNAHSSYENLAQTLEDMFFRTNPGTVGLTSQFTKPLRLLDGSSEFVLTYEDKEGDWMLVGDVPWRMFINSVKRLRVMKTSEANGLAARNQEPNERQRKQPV

Measured: relative luciferase activity (standardised against ARF5CTD-FLucC + IAA28-FLucN)

B1: MYB30-FLucN (natural protein, UniProt Q9SCU7 1-323, looked up)
chain: MVRPPCCDKGGVKKGPWTPEEDIILVTYIQEHGPGNWRAVPTNTGLLRCSKSCRLRWTNYLRPGIKRGNFTEHEEKMIVHLQALLGNRWAAIASYLPQRTDNDIKNYWNTHLKKKLNKVNQDSHQELDRSSLSSSPSSSSANSNSNISRGQWERRLQTDIHLAKKALSEALSPAVAPIITSTVTTTSSSAESRRSTSSASGFLRTQETSTTYASSTENIAKLLKGWVKNSPKTQNSADQIASTEVKEVIKSDDGKECAGAFQSFSEFDHSYQQAGVSPDHETKPDITGCCSNQSQWSLFEKWLFEDSGGQIGDILLDENTNFF
notes: transcription factor MYB30, the unrelated protein used as negative control; source: Arabidopsis mesophyll protoplasts, transfected, in living cells; not shown: FLucN (firefly luciferase aa 1-398)
< 0.1: IAA17-FLucC | [1] | IAA6-FLucC | [2] | IAA13-FLucC
